Earlier results, collected in PMC9528908.

Key:
Asp66 = Asp66 (UniProt position 148, FTKKMDENAKK); test: stability
Glu66 = Glu66 (UniProt position 148, FTKKMEENAKK); test: stability

Substance	pKa (Asp66)	pKa (Glu66)
Staphylococcal nuclease (SNase) V66D variant (Staphylococcus aureus; V66D)	8.45–9.03	
Staphylococcal nuclease (SNase) V66E variant (Staphylococcus aureus; V66E)		8.73–9.28
